Here are results for 4 substances from paper PMC5137425.

For assay [1], the target named is Human ubiquitin (monoUb) (human) (UniProt P0CG48). Nature of the assay: NMR titration.
Assay [2] has as its target C. elegans TDP2 UBA domain, CeTDP2 (41-100) (C. elegans) (UniProt Q9XWG3). Nature of the assay: NMR titration.
For assay [3] the target is unchanged. The assay is described as follows: fluorescence polarisation. Background: In fluorescence polarisation assays a small probe gives low polarisation when free and higher when bound to something large.

In the case of “C. elegans TDP2 UBA domain, CeTDP2 (41-100) (from UniProt Q9XWG3 41-100) (domain or fragment)”, the Kd in assay [1] was found to be 100 µM.
“Human ubiquitin (monoUb) (from UniProt P0CG48 1-76) (natural protein)”: the Kd was determined as 120 µM in assay [2] and 40 µM in assay [3].
“K48-linked diubiquitin (from UniProt P0CG48 1-76) (complex)” registered an equilibrium dissociation constant (Kd) in assay [3] of 8.4 µM. In other words, the single-digit micromolar range.
With “K63-linked diubiquitin (from UniProt P0CG48 1-76) (complex)”, the Kd in assay [2] was found to be 10.2 µM. This lies in the double-digit micromolar range.

Broadly, the Kd is the concentration at which binding is half-saturated.
